{"source": "paper PMC2804184", "molecular_target": "p97 C-terminal peptide (last 10 residues, …), N-terminally labeled with fluorescein", "experiment": "fluorescence polarisation", "data": [{"substance": "PLAA C-terminal PUL domain (residues 454-738) (domain or fragment)", "values": [{"measurement": "Kd", "value": 5, "unit": "µM"}]}]}
